{"source": "patent US12383572B2", "about": "“Administration of an anti-activin-a compound to a subject” (AMGEN INC., priority 2013, dated 2025)", "molecules": {"B1": {"name": "sActRIIB: extracellular domain of human activin type-2B receptor fused to IgG2 Fc; full length SEQ ID NO: 21 (Table 9) (protein, listed as Homo sapiens)", "chain": "ETRWCIYYNANWELERTNQSGLERCEGEQDKRLHCYASWRNSSGTIELVKKGCWLDDFNCYDRQECVATEENPQVYFCCCEGNFCNERFTHLPEAGGPEVTYEPPPTAPTGGGGSVECPPCPAPPVAGPSVFLFPPKPKDTLMISRTPEVTCVVVDVSHEDPEVQFNWYVDGVEVHNAKTKPREEQFNSTFRVVSVLTVVHQDWLNGKEYKCKVSNKGLPAPIEKTISKTKGQPREPQVYTLPPSREEMTKNQVSLTCLVKGFYPSDIAVEWESNGQPENNYKTTPPMLDSDGSFFLYSKLTVDKSRWQQGNVFSCSVMHEALHNHYTQKSLSLSPGK"}}, "key": {"[1]": {"tested_on": "TOV-21G tumors (apoptosis)", "assay": "Active caspase-3 immunostaining and TUNEL assay on TOV-21G tumor sections", "type": "in vivo, human", "conditions": "TOV-21G xenograft tumors", "procedure": "Zinc-formalin fixed paraffin tumor tissue sections of 4 μm in thickness were prepared. The sections were subjected to antigen retrieval by microwave 3 min in Unmask solution (Vector H-3300) followed by incubation in 10 μg/ml Proteinase-K for 20 min and in 1% H2O2 in dH2O for 10 min at room temperature. The sections were further incubated in 0.1% Tween-20 in PBS for 3 min to permeabilize the cell membrane and in goat serum for 30 min to block non-specific binding. The sections were then incubated at room temperature with specific primary antibody for 3 hours followed by incubation in biotinylated or fluorescently labeled secondary antibody. Substrate developed in Vector SG kit (SK-4700) or DAB and nuclear-counterstained in Vector Fast Red (H-3403) or in hematoxylin. The immunostained tissue sections were analyzed and photographed using a Nikon Eclipse 90i microscope equipped with DS-Ril camera. […]\nCell apoptosis in TOV-21G tumors was analyzed by measuring the amounts of fragmented DNA in the tumor sections using the DeadEnd Fluorometric TUNEL System following the manufacturer's recommended protocols (Promega, G3250). The fluorescein-12-dUTP-labeled DNA was visualized by Nikon fluorescence microscopy."}, "[2]": {"target": "T1, activin-A (Mus musculus, UniProt Q04998)", "T1 construct": "from tissue; host or cells: serum of inhibin-α knockout (inh-KO) and wild-type mice", "T1 sequence (Q04998 309-424)": "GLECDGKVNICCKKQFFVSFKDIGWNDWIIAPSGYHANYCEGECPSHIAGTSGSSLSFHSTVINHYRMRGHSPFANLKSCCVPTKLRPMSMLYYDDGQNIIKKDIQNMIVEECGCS", "assay": "Serum activin-A ELISA in inh-KO mice with established gonadal tumors", "type": "in vivo", "conditions": "single injection 30 mg/kg SC", "procedure": "Inh-KO mice. 12-week-old female and 8-week-old male inh-KO mice with fully established ovarian or testicular tumors received a single injection of PBS or sActRIIB (30 mg/kg, SC). As a control, age-matched wild-type littermates received a single injection of PBS. Ovarian and testicular organ weights were determined by necropsy 14 days after the injection. All serum samples from ovarian cancer patients and healthy subjects were collected under informed consent and were purchased from Bioreclamation, Inc. The serum samples were diluted in buffer (DY995, R & D Systems) and pretreated overnight at 4° C. with 4 M urea (Sigma) to dissociate any protein bound to activin-A. The samples were then transferred to 96 well plates pre-coated with an activin-A monoclonal antibody. After 2 hr incubation at room temperature and a washing step (0.05% Tween 20 in DPBS), a biotin-labeled activin-A monoclonal antibody was added for 1 hr at room temperature. […] An acidic stopping solution (KPL) was added and the degree of enzymatic turnover of the substrate was determined by wavelength absorbance measurement at 450 nm. The absorbance measured is directly proportional to the concentration of activin-A present. A standard curve of absorbance versus activin-A concentration was used to determine the amount of Activin-A in the test sample. Serum activin-A levels in inh-KO mice were measured by using ELISA."}}}
{"molecule": "B1", "values": [{"measurement": "active caspase-3 and DNA fragmentation (TUNEL)", "setting": "[1]", "value": "profound increases in active caspase-3 and DNA fragmentation"}, {"measurement": "duration of activin-A-neutralizing effect", "setting": "[2]", "value": "persisted throughout the 14-day study period"}, {"measurement": "serum activin-A levels", "setting": "[2]; within one day after administration", "value": "reduced the elevated activin-A in the inh-KO mice to normal control levels"}]}
